From PMC4980550, “Structural Basis for Plexin Activation and Regulation” (Neuron, 2016)
Values joined by “and” are separate entries in the source; they are usually repeats but may differ in a detail not shown here. Equal values may be shown once. Blank lines part the entries; values can stand above or below the molecule they belong to.

Tests used:
[1] = target: PlxnA2 extracellular-transmembrane segment fused to mTFP1 (donor) or mVenus (acceptor) (mouse); test: FRET or BRET; FRET-FLIM in live COS-7 cells co-expressing mTFP1- and mVenus-fused PlxnA2; before Sema6A stimulation
[2] = target: PlxnA1_(1-10), full extracellular segment of mouse PlxnA1 (domains 1-10) (mouse) (UniProt P70206); test: AUC; sedimentation velocity, 40,000 rpm, absorbance at 280 nm, c(s) analysis; protein at 28.1 μM (4 mg/ml)
[3] = target: the molecule itself; test: crystal structure; crystals of full extracellular segments; intermolecular plexin-plexin interface in the crystal; 4 to 10 Å
[4] = target: T1, PlxnA2_(1-2), PlxnA2 sema-PSI1 domains (mouse, UniProt P70207 31-561); test: SPR; equilibrium experiments, Biacore T200, 25°C, 10 mM HEPES pH 7.5, 150 mM NaCl, 0.005% Tween 20; biotinylated PlxnA2_(4-5) (wild type or mutant) on streptavidin chip, PlxnA2_(1-2) as analyte; 1:1 Langmuir model; conditions: both partners purified
T1 construct: Plexin-A2, mouse, sema and PSI1 domains (domains 1-2)
T1 sequence: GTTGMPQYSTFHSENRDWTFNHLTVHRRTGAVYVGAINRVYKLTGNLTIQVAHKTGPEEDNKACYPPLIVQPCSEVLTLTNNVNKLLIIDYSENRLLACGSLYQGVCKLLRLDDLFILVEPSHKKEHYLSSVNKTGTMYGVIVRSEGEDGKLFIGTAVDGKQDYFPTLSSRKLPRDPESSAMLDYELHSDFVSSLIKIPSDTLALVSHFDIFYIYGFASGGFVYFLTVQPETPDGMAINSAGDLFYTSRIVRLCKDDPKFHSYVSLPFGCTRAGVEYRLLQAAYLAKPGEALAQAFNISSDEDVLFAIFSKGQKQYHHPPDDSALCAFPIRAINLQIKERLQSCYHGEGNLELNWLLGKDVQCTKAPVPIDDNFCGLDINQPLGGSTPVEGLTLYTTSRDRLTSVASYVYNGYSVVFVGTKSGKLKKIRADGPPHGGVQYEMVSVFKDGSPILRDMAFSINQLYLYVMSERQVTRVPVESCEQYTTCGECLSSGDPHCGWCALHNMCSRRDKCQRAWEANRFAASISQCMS

average fraction of interacting donor (fD) [1]: 0.11
Molecule: PlxnA2 extracellular-transmembrane segment fused to mTFP1 (donor) or mVenus (acceptor) (receptor)

stoichiometry N [2]: 2 and 3 and 4
Molecule: PlxnA1_(1-10), full extracellular segment of mouse PlxnA1 (domains 1-10) (from UniProt P70206 28-1242) (domain or fragment)

B1: PlxnA2_(1-10), full extracellular segment of mouse PlxnA2 (domain or fragment, UniProt P70207 35-1237, looked up)
chain: MPQYSTFHSENRDWTFNHLTVHRRTGAVYVGAINRVYKLTGNLTIQVAHKTGPEEDNKACYPPLIVQPCSEVLTLTNNVNKLLIIDYSENRLLACGSLYQGVCKLLRLDDLFILVEPSHKKEHYLSSVNKTGTMYGVIVRSEGEDGKLFIGTAVDGKQDYFPTLSSRKLPRDPESSAMLDYELHSDFVSSLIKIPSDTLALVSHFDIFYIYGFASGGFVYFLTVQPETPDGMAINSAGDLFYTSRIVRLCKDDPKFHSYVSLPFGCTRAGVEYRLLQAAYLAKPGEALAQAFNISSDEDVLFAIFSKGQKQYHHPPDDSALCAFPIRAINLQIKERLQSCYHGEGNLELNWLLGKDVQCTKAPVPIDDNFCGLDINQPLGGSTPVEGLTLYTTSRDRLTSVASYVYNGYSVVFVGTKSGKLKKIRADGPPHGGVQYEMVSVFKDGSPILRDMAFSINQLYLYVMSERQVTRVPVESCEQYTTCGECLSSGDPHCGWCALHNMCSRRDKCQRAWEANRFAASISQCMSLEVHPNSISVSDHSRLLSLVVNDAPNLSEGIACAFGNLTEVEGQVSGSQVICISPGPKDVPVIPLDQDWFGLELQLRSKETGKIFVSTEFKFYNCSAHQLCLSCVNSAFRCHWCKYRNLCTHDPTTCSFQEGRINVSEDCPQLVPTEEILIPVGEVKPITLKARNLPQPQSGQRGYECVLSIQGAVHRVPALRFNSSSVQCQNSSYQYDGMDISNLAVDFAVVWNGNFIIDNPQDLKVHLYKCAAQRESCGLCLKADHKFECGWCSGERRCTLHQHCPSTSSPWLDWSSHNVKCSNPQITEILTVSGPPEGGTRVTIHGVNLGLDFSEIAHHVQVAGVPCTPIPGEYIIAEQIVCEMGHAVIGTTSGPVRLCIGECKPEFMTKSHQQYTFVNPSVLSLSPIRGPESGGTMVTITGHYLGAGSSVAVYLGNQTCEFYGRSMNEIVCVSPPSSNGLGPVPVSVSVDRARVDSSLQFEYIDDPRVQRIEPEWSITSGHTPLTITGFNLDVIQEPRVRVKFNGKESVNVCTVVNTTTLTCLAPSLTSDYRPGLDTVERPDEFGFLFNNVQSLLIYNDTKFIYYPNPTFELLSPTGILDQKPGSPIILKGKNLCPPASGGAKLNYTVMIGETPCTVTVSETQLLCEPPNLTGQHKVMVHVGGMVFSPGSVSVISDSLLTLP
notes: Plexin-A2, mouse, full extracellular segment (domains 1-10); also called PlxnA2 full ectodomain
binding result [3]: binds

B2: PlxnA4_(1-10), full extracellular segment of mouse PlxnA4 (domain or fragment, UniProt Q80UG2 24-1236, looked up)
chain: TLLPRQPPQLSQKPSFVTFRGEPAEGFNHLVVDERTGHIYLGAVNRIYKLSSDLKVLVTHQTGPDEDNPKCYPPRIVQTCNEPLASTNNVNKMLLIDYKENRLIACGSLYQGICKLLRLEDLFKLGEPFHKKEHYLSGVNESGSVFGVIVSYSNFDDKLFIATAVDGKPEYFPTISSRKLTKNSEADGMFAYVFHDEFVASMIKIPSDTFTVIPDFDIYYVYGFSSGNFVYFLTLQPEMVSPPGSTTKEQVYTSKLVRLCKEDTAFNSYVEVPIGCERNGVEYRLLQAAYLSKAGAVLGRTLGVRPDDDLLFTVFSKGQKRKMKSLDESALCIFILKQINDRIKDRLQSCYRGEGTLDLAWLKVKDIPCSSALLTIDDNFCGLDMNAPLGVSEMVRGIPVFTEDRDRMTSVIAYVYKNHSLAFVGTKSGKLKKIRVDGPKGNALQYETVQVVDSGPVLRDMAFSKDHEQLYIMSERQLTRVPVESCGQYRSCGECLGSGDPHCGWCVLHNTCTRKERCERSREPRRFASEMKQCVRLTVHPNNISVSQYNVLLVLETYNVPELSAGVNCTFEDLSEMDGLVIGNQIQCYSPAAKEVPRIITENGDHHVVQLQLKSKETGMTFASTSFVFYNCSVHNSCLSCVESPYRCHWCKYRHVCTHDPNTCSFQEGRVKLPEDCPQLLRVDKILVPVEVIKPITLKAKNLPQPQSGQRGYECILNIQGIEQRVPALRFNSSSVQCQNTSYSYEGMEINNLPVELTVVWNGHFNIDNPAQNKVYLYKCGAMRESCGLCLKADPDFECGWCQSPGQCTLRQHCPAHESRWLELSGANSKCTNPRITEIIPVTGPREGGTKVTIRGENLGLEFRDIASHVKVAGVECSPLVDGYIPAEQIVCEMGEAKPSQHAGFVEICVAVCRPEFMARSSQLYYFMTLTLADLKPNRGPMSGGTQVTITGTNLNAGSNVVVMFGSQPCLFHRRSPSYIICNTTSSEEVLDMKVTVQVDRARIRQDLVFQYVEDPTIVRIEPEWSIVSGNTPIAVWGTHLDLIQNPQIRAKHGGKEHINICEVLNATEMTCQAPALALGPDHQSDLTERPEEFGFILDNVQSLLILNKTNFTYYPNPVFEAFSPSGILELKPGTPIILKGKNLIPPVAGGNVKLNYTVLVGEKPCTVTVSDVQLLCESPNLIGRHKVMARVGGMEYSPGMVYIAPDSPLSLP
notes: Plexin-A4, mouse, full extracellular segment (domains 1-10); also called PlxnA4 full ectodomain
binding result [3]: binds

Kd [4]: 20.9 ± 0.38 µM
B3: PlxnA2_(4-5), PlxnA2 PSI2-IPT2 domains (domain or fragment, mouse)
chain: NCSAHQLCLSCVNSAFRCHWCKYRNLCTHDPTTCSFQEGRINVSEDCPQLVPTEEILIPVGEVKPITLKARNLPQPQSGQRGYECVLSIQGAVHRVPALRFNSSSVQCQNSSYQYDGMDISNLAVDFAVVWNGNFIIDNPQDLKVHLYK
modifications: enzymatically biotinylated with BirA via an engineered C-terminal tag
notes: Plexin-A2, mouse, PSI2 and IPT2 domains (domains 4-5); The crystallised PlxnA2_(4-5) (PDB 5L74) was made in HEK293S cells; also called wild-type PlxnA2_(4-5); not shown: biotinylation tag (BirA), C-terminal, kept
